Measurements taken from paper PMC6978347.

Molecular target: polymerization-deficient p62^1–102 (D69A/D73A) (human) (UniProt Q13501)
Experiment: ITC; VP-ITC, 25 °C, 10 mM HEPES pH 7.5, 150 mM NaCl; p62 D69A/D73A in the cell (5–20 μM), partner PB1 domain in the syringe (25–100 μM); one-site model; mean of three measurements

B1: MEKK3^43–127 (MEKK3–PB1) (domain or fragment)
chain: SDVRIKFEHNGERRIIAFSRPVKYEDVEHKVTTVFGQPLDLHYMNNELSILLKNQDDLDKAIDILDRSSSMKSLRILLLSQDRNH
  Kd: 26.8 nM
